Reference: US10736933B2, “Peptide-induced NK cell activation” (priority 2015, dated 2020)

Assays:
[1] = target: T1, HLA-Cw*0102 (Homo sapiens, UniProt P10321, A176E/A330V/A35S/A97T/C350S/D114A/D33F/L171W/L180R/L218V/M285V/M309V/M331V/P208H/Q277E/Q291P/R121W/R243W/R30K/S123C/S140Y/S297R/T329A/T363A/V272M/V319A); test: Peptide binding to HLA-Cw*0102 on L721.174 cells (cell surface MHC class I, flow cytometry); format: cell-based; conditions: increasing concentrations of peptide, overnight at 26° C.
Description: (§1) The HLA-Cw*0102-positive cell line L721.174 was incubated with increasing concentrations of the LNPSVAATL (SEQ ID NO: 5) peptide or a control peptide VAPWNSLSL (SEQ ID NO: 11). Cells were stained for cell surface of MHC class I and analysed by flow cytometry. The mean fluorescence intensity of cell surface MHC Class I was plotted against the peptide concentration.
as §1, with “HLA-Cw*0102 • positive” for “HLA-Cw*0102-positive”, “peptides IVDLMCHATF” for “LNPSVAATL”, “1); VIDAMCHATL (SEQ ID NO: 2); AANVMAASL (SEQ ID NO: 3); and FLSDVPVATL (SEQ ID NO: 4)” for “5) peptide”, “[…].” for “VAPWNSLSL (SEQ ID NO: 11).”
3×10^5 cells were used per condition. Following washing in PBS the cells were stained for cell surface of MHC class I and analysed by flow cytometry. The mean fluorescence intensity of cell surface MHC Class I was plotted against the peptide concentration.
With reference to FIG. 12, the HLA-Cw*0102-positive cell line L721.174 was incubated with increasing concentrations of the peptides IVDLMCHATF (SEQ ID NO: 1), VIDAMCHATL (SEQ ID NO: 2), AANVMAASL (SEQ ID NO: 3); and FLSDVPVATL (SEQ ID NO: 4) overnight at 26° C. 3×10^5 cells were used per condition. Following washing in PBS the cells were stained for cell surface of MHC class I and analysed by flow cytometry. The mean fluorescence intensity of cell surface MHC Class I was plotted against the peptide concentration.

[2] = target: T2, KIR2DS2 (Homo sapiens, UniProt P43631); test: KIR2DS2 tetramer (KIR2DS2-PE) staining of peptide-loaded L721.174 cells; format: binding; conditions: L721.174 cells incubated overnight at 26° C. with peptide, flow cytometry
T2 construct: made in house
Description: A. The KIR2DS2 protein was expressed with a biotinylation C-terminal tag. Following biotinylation with the BirA enzyme, the KIR2DS2 protein was incubated with streptavidin-phycoerythrin to form fluorescent KIR2DS2-tetramers (KIR2DS2-PE). L721.174 cells were then incubated with indicated peptides. Cells were then stained with KIR2DS2-PE and analysed by flow cytometry. Shown are histogram plots. The bold numbers represent the mean fluorescent staining intensity of the KIR2DS2-PE staining of the cells in the presence of peptide and the non-bold numbers the staining in the absence of peptide. B. Represents the mean and standard error fluorescent intensities of the experiment in “A” following replicate experiments.
A. L721.174 cells were incubated with indicated peptides. Cells were then stained with KIR2DS2-PE (see FIG. 4) and analysed by flow cytometry. Shown are histogram plots. The bold numbers represent the mean fluorescent staining intensity of the KIR2DS2-PE staining of the cells in the presence of peptide and the non-bold numbers the staining in the absence of peptide. B. Represents the mean and standard error fluorescent intensities of the experiment in “A” following replicate experiments.
FIG. 13—KIR2DS2 tetramer staining on 174 cells with and without peptides. Peptides tested include IVDLMCHATF (SEQ ID NO: 1); VIDAMCHATL (SEQ ID NO: 2); AANVMAASL (SEQ ID NO: 3); and FLSDVPVATL (SEQ ID NO: 4). A negative control peptide VAPWNSFAL (SEQ ID NO: 12) and positive control peptide LNPSVAATL (SEQ ID NO: 5) were included. The mean fluorescence intensity of the KIR2DS2 tetramer staining is shown in the right hand corner of the graph.
With reference to FIG. 4A, the KIR2DS2 protein was expressed as a recombinant protein with a biotinylation C-terminal tag. Following biotinylation with the BirA enzyme, the KIR2DS2 protein was incubated with streptavidin-phycoerythrin to form fluorescent KIR2DS2-tetramers (KIR2DS2-PE). 3×10^5 L721.174 cells were then incubated overnight at 26° C. with indicated peptides at a concentration of […]. Cells were then stained with KIR2DS2-PE and analysed by flow cytometry. Shown are histogram plots. The bold numbers represent the mean fluorescent staining intensity of the KIR2DS2-PE staining of the cells in the presence of peptide and the non-bold numbers the staining in the absence of peptide. With reference to FIG. 4B, panel B represents the mean and standard error fluorescent intensities of the experiment in “A” following replicate experiments.
With reference to FIG. 5A, 3×10^5 L721.174 cells were incubated overnight at 26° C. with indicated peptides at a concentration of 200 μM. Cells were then stained with KIR2DS2-PE (see FIG. 4) and analysed by flow cytometry. Shown are histogram plots. The bold numbers represent the mean fluorescent staining intensity of the KIR2DS2-PE staining of the cells in the presence of peptide and the non-bold numbers the staining in the absence of peptide. With reference to FIG. 5B, panel B represents the mean and standard error fluorescent intensities of the experiment in “A” following replicate experiments.
With reference to FIG. 13, the KIR2DS2 protein was expressed as a recombinant protein with a biotinylation C-terminal tag. Following biotinylation with the BirA enzyme, the KIR2DS2 protein was incubated with streptavidin-phycoerythrin to form fluorescent KIR2DS2-tetramers (KIR2DS2-PE). […] Cells were then stained with KIR2DS2-PE and analysed by flow cytometry. […]

[3] = system: NKL cell line transfected with KIR2DS2; test: Vav1 phosphorylation (pVav1 Western blot) in NKL cells transfected with KIR2DS2; format: cell-based; conditions: HLA-C*0304:ICP47:721.221 cells loaded with peptide; 5 minutes
Description: A. L721.174 cells were incubated with indicated peptides. The cells were then incubated with the NK cell line transfected with KIR2DS2. The cells were lysed and the KIR2DS2 was then immunoprecipitated from the mixture using the GL183 antibody coupled to protein-G beads. The immune precipitate was analysed by Western blotting using a phosphotyrosine antibody. The membrane was then stripped and reprobed with an antibody to DAP12 the molecule that transduces a positive signal from KIR2DS2. Shown are the regions on the blots at the level of DAP12 (12-15 kDa). B. L721.174 cells were incubated with indicated peptides. The cells were then incubated with the NK cell line transfected with KIR2DS2 or transfected with KIR2DL2. The cells were lysed in 1% NP-40 and then analysed by Western blotting using antibodies to pVav1 and then following stripping of the membrane to Vav1. Shown are Western blots around the 98 kDa region, and below them the corresponding densitometries for 3 independent experiments.
FIG. 7 1×10^6 L721.221-HLA-C*0304-ICP47 cells were incubated overnight at 26° C. with indicated peptides at a concentration of […]. The cells were then incubated with the NKL cell line transfected with KIR2DS2 or transfected with KIR2DL2 for 5 minutes. The cells were lysed in 1% NP-40 and then analysed by Western blotting using antibodies to pVav1 and then following stripping of the membrane to Vav1. Shown are Western blots around the 98 kDa region, and below them the corresponding densitometries for 2 independent experiments.
FIG. 14—The Dengue virus peptide IVDLMCHATF (SEQ ID NO: 1) activates KIR2DS2 positive NK cells. 174 cells were incubated with the IVDLMCHATF (SEQ ID NO: 1) and then KIR2DS2-positive transfected NKL cells or KIR2DL2-positve transfected NKL cells. Activation of NK cells was assessed by western blotting for phosphorylated Vav1, and compared to total Vav1.
With reference to FIG. 6A, 1×10^6 L721.174 cells were incubated overnight at 26° C. with indicated peptides at a concentration of […]. The cells were then incubated with the NK cell line transfected with KIR2DS2 for 5 minutes. The cells were lysed in 1% digitonin buffer and the KIR2DS2 was then immunoprecipitated from the mixture using the GL183 antibody coupled to protein-G beads. The immune precipitate was analysed by Western blotting using a phosphotyrosine antibody. […] The cells were lysed in 1% NP-40 and then analysed by Western blotting using antibodies to pVav1 and then following stripping of the membrane to Vav1. […]
With reference to FIG. 7, 1×10^6 HLA-C*0304:ICP47:721.221 cells were incubated overnight at 26° C. with indicated peptides at a concentration of […]. […] The cells were lysed in 1% NP-40 and then analysed by Western blotting using antibodies to pVav1 and then following stripping of the membrane to Vav1. […]

[4] = system: KIR2DS2-positive NK cells; test: CD107a degranulation of NK cells from KIR2DS2-positive donors cultured with peptide-loaded L721.174 cells; format: cell-based; conditions: KIR2DS2-positive donor, CH-L antibody positive NK cells, four hours, compared to no peptide
Description: (§2) A. cells were incubated in the presence or absence of peptides, and then cultured with NK cells from either a KIR2DS2-positive or KIR2DS2-negative donor. The level of CD107a (LAMP) expression was measured on NK cells positive for the CH-L antibody. This antibody binds to KIR2DS2, KIR2DL2 and KIR2DL3. B. Summary data from 5 KIR2DS2-positive and 6 KIR2DS2 • negative donors tested as per panel A of FIG. 2. To compare the different donors the data are normalized to 100% for the no peptide condition.
(§3) With reference to FIG. 2A, 3×10^5 L721.174 cells were incubated at 26° C. overnight in the presence or absence of peptides, and then cultured for four hours with NK cells from either a KIR2DS2-positive or KIR2DS2-negative donor. The level of CD107a (LAMP) expression was measured on NK cells positive for the CH-L antibody. This antibody binds to KIR2DS2, KIR2DL2 and KIR2DL3. […] With reference to FIG. 2B, summary data from 5 KIR2DS2-positive and 6 KIR2DS2 • negative donors were tested as per panel A of FIG. 2. To compare the different donors the data are normalized to 100% for the no peptide condition.

[5] = system: KIR2DS2-negative donor NK cells; test: CD107a degranulation of NK cells from KIR2DS2-negative donors cultured with peptide-loaded L721.174 cells; format: cell-based; conditions: CH-L antibody positive NK cells, four hours, compared to no peptide
Description: as §2, §3

[6] = target: T1, HLA-Cw*0102; conditions: control peptide, known binder; cited from earlier work

T2 sequence (P43631 22-245 limits assumed): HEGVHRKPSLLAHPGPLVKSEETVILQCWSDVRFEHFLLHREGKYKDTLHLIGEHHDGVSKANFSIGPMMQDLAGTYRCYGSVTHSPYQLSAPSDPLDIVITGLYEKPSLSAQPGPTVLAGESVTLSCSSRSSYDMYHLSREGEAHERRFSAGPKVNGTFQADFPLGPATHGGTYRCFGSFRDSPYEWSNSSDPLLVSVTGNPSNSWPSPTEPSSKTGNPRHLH

Sequence | binding to HLA-Cw*0102 (mean fluorescence intensity of cell surface MHC Class I) [1] | KIR2DS2-PE tetramer binding to HLA-C*0102 and peptide [2] | further results
AANVMAASL | bind HLA-Cw*0102 | KIR2DS2 BINDS | –
FLSDVPVATL | bind HLA-Cw*0102 | KIR2DS2 BINDS | –
GAVPDLATL | – | – | activation of KIR2DS2 (pVav1 vs Vav1) [3]: KIR2DS2 IS ACTIVATED
GAVPDLAWL | – | – | activation of KIR2DS2 (pVav1 vs Vav1) [3]: KIR2DS2 IS ACTIVATED
VAPWNSFAL [VAP-FA, negative control peptide, reference compound] | – | – | level of CD107a (LAMP) degranulation [4]: lower levels of degranulation; level of CD107a (LAMP) degranulation [5]: lower levels of degranulation
VAPWNSLSL | – | – | binding to HLA-Cw*0102 [6]: known to bind HLA-Cw*0102
VIDAMCHATL | bind HLA-Cw*0102 | KIR2DS2 BINDS | –
